± gives the standard deviation of the averaged measurements.
Tested on: ATP
Test: switch fluorescence ratio, 500 uM ATP over buffer (Cy3 cluster intensity, sum of 5 cycles each) (fold (ratio)); higher = stronger signal-on switching upon ATP binding; sequences stand for … in TCGTCGGCAGCGTCAGATGTGTATAAGAGACAGTTTTTTTTTTTTTTTTTTTTTTTTT…TC
Details: aptamer strand: ATP DNA aptamer (quencher-CACCTGGGGGAGTATTGCGGAGGAAGG + anchor), 100 nM annealed; ATP concentration: 500 uM
In short: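 After annealing to 100 nM quencher-labelled ATP aptamer, Cy3-labelled switching-strand clusters on a modified Illumina MiSeq flow-cell were imaged in selection buffer. A second image followed after 15 min with 500 uM ATP at 22 °C, and five such buffer/ATP cycles were done, each separated by NaOH stripping and re-annealing. The fluorescence ratio, averaged per switch-domain sequence, is summed target-cycle over summed buffer-cycle Cy3 intensity per cluster, with clusters outside 100-1000 RFU excluded.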
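Also: ATP exposure 15 min at 22 °C before imaging.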

GGTGGAAGGG
switch fluorescence ratio: 0.975 ± 0.03

AAGGTTCTGG
switch fluorescence ratio: 0.9883 ± 0.0083

TTCTATTTCG
switch fluorescence ratio: 1 ± 0.019

GCCTGCGGGA
switch fluorescence ratio: 1.1 ± 0.13

CAACGGGTTT
switch fluorescence ratio: 0.997 ± 0.051

CGAACGGGGA
switch fluorescence ratio: 1.16 ± 0.049

CGCCGACGGC
switch fluorescence ratio: 1.01 ± 0.018

CGCGAGGATG
switch fluorescence ratio: 1.022 ± 0.0099

TCGGGGATCA
switch fluorescence ratio: 0.9752 ± 0.0058

TTAATTGGTG
switch fluorescence ratio: 1.021 ± 0.009

TTTCGGGACG
switch fluorescence ratio: 0.987 ± 0.035

ATTACGGCAC
switch fluorescence ratio: 2.09 ± 0.14

ACACGTGGGA
switch fluorescence ratio: 1.015 ± 0.0032

GATGGGGCAC
switch fluorescence ratio: 1.01 ± 0.013

TAAGCGATCA
switch fluorescence ratio: 1.02 ± 0.018

GCCCTTGTTT
switch fluorescence ratio: 1.03 ± 0.046

GGTGTATTTG
switch fluorescence ratio: 0.981 ± 0.013

CAGTGTTATC
switch fluorescence ratio: 1.01 ± 0.013

GAGGGGTGGG
switch fluorescence ratio: 1.04 ± 0.076

CTACGGGATT
switch fluorescence ratio: 1.33 ± 0.43

CGTGTCAGGG
switch fluorescence ratio: 1 ± 0.034

GAGGGCGGCG
switch fluorescence ratio: 1.01 ± 0.11

TATCCGAGGT
switch fluorescence ratio: 1.16 ± 0.26

GGGGGTTGGA
switch fluorescence ratio: 1.01 ± 0.032

TTTATAATCT
switch fluorescence ratio: 1.05 ± 0.019

TAATCAGTAG
switch fluorescence ratio: 1.02 ± 0.015

GCGAAGGCTT
switch fluorescence ratio: 1.017 ± 0.0095

GGGTAGAAAA
switch fluorescence ratio: 1.01 ± 0.043

ATGAGTTGTG
switch fluorescence ratio: 1 ± 0.017

AGATGGCTGG
switch fluorescence ratio: 1.02 ± 0.012

ATGGTTTTAG
switch fluorescence ratio: 0.993 ± 0.033

CTAATAGTT
switch fluorescence ratio: 1 ± 0.048

ACAGGAGGAA
switch fluorescence ratio: 1.01 ± 0.046

ACATTTTGG
switch fluorescence ratio: 1.002 ± 0.0081

CTTATGATGG
switch fluorescence ratio: 0.987 ± 0.01

TATGGATTGG
switch fluorescence ratio: 0.977 ± 0.029

CAGGTGAGAC
switch fluorescence ratio: 1.31 ± 0.04

CAATGGTTCA
switch fluorescence ratio: 1.01 ± 0.013

CATAGATCTG
switch fluorescence ratio: 1.01 ± 0.028

CGTTTGGAGC
switch fluorescence ratio: 0.968 ± 0.031

TTGCGATATT
switch fluorescence ratio: 1.27 ± 0.36

CTAGTCAGGT
switch fluorescence ratio: 1.018 ± 0.0012

CAGGCAGATG
switch fluorescence ratio: 1.01 ± 0.015

TTTCCGGACG
switch fluorescence ratio: 1.02 ± 0.037

TTTTTCGCTT
switch fluorescence ratio: 1.06 ± 0.077

TTTTATATGT
switch fluorescence ratio: 1.02 ± 0.028

TGAGAACCCG
switch fluorescence ratio: 1.02 ± 0.051

ATGGCTTGTC
switch fluorescence ratio: 1.03 ± 0.038

GATGATAAAA
switch fluorescence ratio: 0.989 ± 0.033

ACGCATTCAA
switch fluorescence ratio: 1.236 ± 0.0039

TTGACGAGGT
switch fluorescence ratio: 1.07 ± 0.078

CGAGTATCTA
switch fluorescence ratio: 0.993 ± 0.029

CACTTACGTT
switch fluorescence ratio: 1.347 ± 0.012

AGCATAATTG
switch fluorescence ratio: 1.01 ± 0.0076

AATATTTCCA
switch fluorescence ratio: 0.974 ± 0.023

TTGGGGTTTG
switch fluorescence ratio: 0.975 ± 0.038

CTATTGAAGT
switch fluorescence ratio: 0.9838 ± 0.0073

AATGGGCAAG
switch fluorescence ratio: 1.05 ± 0.015

ATGAGGGGTT
switch fluorescence ratio: 0.995 ± 0.032

GCGGGGTTGG
switch fluorescence ratio: 1.01 ± 0.035

GCTAGTCTGA
switch fluorescence ratio: 0.9954 ± 0.0019

CAAAGGAGGC
switch fluorescence ratio: 1.01 ± 0.048

TAAGAGATTG
switch fluorescence ratio: 1.01 ± 0.022

TAAAAGGTCC
switch fluorescence ratio: 1.04 ± 0.038

AAATCACGTC
switch fluorescence ratio: 1.07 ± 0.019

CAGTGCAGCG
switch fluorescence ratio: 1.06 ± 0.057

CGGGGAGGTA
switch fluorescence ratio: 0.9803 ± 0.0049

TGACGAAGCG
switch fluorescence ratio: 1.05 ± 0.035

GAGATTTTGT
switch fluorescence ratio: 0.998 ± 0.036

TTGCCAGGGA
switch fluorescence ratio: 0.995 ± 0.014

GGCGGGTAGA
switch fluorescence ratio: 1.043 ± 0.0093

GAGGTGGGCT
switch fluorescence ratio: 1 ± 0.067

AGGAATGGCT
switch fluorescence ratio: 0.985 ± 0.017

AAAGACGCGG
switch fluorescence ratio: 0.992 ± 0.015

ACGCGCCGGG
switch fluorescence ratio: 1.063 ± 0.0039

CGTAAAACGC
switch fluorescence ratio: 1.02 ± 0.03

TCGGAAGATT
switch fluorescence ratio: 1.01 ± 0.034

CTATATAGGT
switch fluorescence ratio: 1.014 ± 0.0069

ACTTAAGTAG
switch fluorescence ratio: 0.987 ± 0.04

CAGGCAGGGT
switch fluorescence ratio: 0.969 ± 0.035

CATCGCTATG
switch fluorescence ratio: 1.096 ± 0.0097

TTCGGGTTTA
switch fluorescence ratio: 0.994 ± 0.055

TATTTATACA
switch fluorescence ratio: 1.029 ± 0.0054

ACCAACCGT
switch fluorescence ratio: 1.16 ± 0.02

CGGTGTTAGC
switch fluorescence ratio: 0.976 ± 0.0015

TCACATAGTT
switch fluorescence ratio: 1.01 ± 0.0061

ACGTTTGGAT
switch fluorescence ratio: 1.02 ± 0.027

TGTGTAAGAC
switch fluorescence ratio: 1.16 ± 0.022

GTTATTATGT
switch fluorescence ratio: 0.994 ± 0.077

AGACTATGTG
switch fluorescence ratio: 0.991 ± 0.024

CGCTGTACAG
switch fluorescence ratio: 0.96028 ± 0.00038

TTGGTTGAGG
switch fluorescence ratio: 0.974 ± 0.02

AGGGGTGTTA
switch fluorescence ratio: 0.991 ± 0.019

AGAACCACCG
switch fluorescence ratio: 1.12 ± 0.032

TAGGGGGGCT
switch fluorescence ratio: 0.968 ± 0.045

ATTGGTTAGG
switch fluorescence ratio: 1.01 ± 0.028

TGGATTAAGG
switch fluorescence ratio: 1.03 ± 0.033

TTTTGAATTG
switch fluorescence ratio: 0.9841 ± 0.005

TTGTTGGAGG
switch fluorescence ratio: 0.982 ± 0.025

GGGTTCATTC
switch fluorescence ratio: 0.998 ± 0.026

GCGCTAGGCT
switch fluorescence ratio: 1.01 ± 0.08

ATAAGACTCT
switch fluorescence ratio: 0.9964 ± 0.0081

TTATTCCTTT
switch fluorescence ratio: 0.978 ± 0.042

CACGTATTCA
switch fluorescence ratio: 1.15 ± 0.045

AAATGACGTC
switch fluorescence ratio: 1.01 ± 0.023

ATCAAATGTA
switch fluorescence ratio: 0.981 ± 0.024

GGTAGCGAAA
switch fluorescence ratio: 1.009 ± 0.0051

ACTGAGGTAA
switch fluorescence ratio: 0.95 ± 0.043

AGTAAAGTTC
switch fluorescence ratio: 1.03 ± 0.028

TTGAAATAG
switch fluorescence ratio: 0.9957 ± 0.0097

ATGAAAGGTT
switch fluorescence ratio: 0.975 ± 0.021

CGTGAGTACG
switch fluorescence ratio: 0.992 ± 0.01

CTTGTAAATT
switch fluorescence ratio: 0.983 ± 0.035

TGTGACGGGA
switch fluorescence ratio: 1.091 ± 0.0051

TTATCAGGTT
switch fluorescence ratio: 1 ± 0.031

TTGAAGGCGG
switch fluorescence ratio: 1.02 ± 0.024

GCTGTAACGA
switch fluorescence ratio: 0.998 ± 0.017

GGGTGAGATA
switch fluorescence ratio: 1.07 ± 0.011

CGTGTTGGG
switch fluorescence ratio: 1 ± 0.028

TGGGGCCGAT
switch fluorescence ratio: 1.02 ± 0.021

CGGGTTTAAT
switch fluorescence ratio: 0.94 ± 0.029

CTTCATAAGT
switch fluorescence ratio: 0.983 ± 0.022

ATAGTCCACC
switch fluorescence ratio: 1.014 ± 0.0072

GACATGAGGG
switch fluorescence ratio: 1 ± 0.071

CATATCCCCT
switch fluorescence ratio: 1.03 ± 0.045

CAACGAGGGG
switch fluorescence ratio: 1.02 ± 0.039

AGGCGCTCTG
switch fluorescence ratio: 0.99 ± 0.0045

ACGGAGGGCT
switch fluorescence ratio: 1.02 ± 0.015

ACGGCATTAA
switch fluorescence ratio: 1.165 ± 0.0043

GGCCGAGGTC
switch fluorescence ratio: 1.02 ± 0.013

TAGGAGGGTT
switch fluorescence ratio: 0.987 ± 0.026

CAGAGAGTTT
switch fluorescence ratio: 0.9851 ± 0.0044

TTCAAATCCC
switch fluorescence ratio: 1.005 ± 0.0094

GCGTTGTCTG
switch fluorescence ratio: 0.982 ± 0.068

ATAAGCATTA
switch fluorescence ratio: 1.05 ± 0.11

GGGGCTGGAG
switch fluorescence ratio: 1.03 ± 0.063

GATAGGGCGC
switch fluorescence ratio: 1.02 ± 0.026

ATCATGGTGC
switch fluorescence ratio: 1.13 ± 0.074

ATAGGCGTGC
switch fluorescence ratio: 1 ± 0.011

GATATGTTGG
switch fluorescence ratio: 0.999 ± 0.017

AGGGGAGCGT
switch fluorescence ratio: 1.015 ± 0.0064

ACGGGACTAG
switch fluorescence ratio: 1.02 ± 0.099

TTTACGGCTT
switch fluorescence ratio: 1.05 ± 0.078

TTCAAGCAAG
switch fluorescence ratio: 1.15 ± 0.015

TTAGCTTGCT
switch fluorescence ratio: 1.019 ± 0.0035

GTGGCATGTT
switch fluorescence ratio: 0.9788 ± 0.0038

TCGAAATTCG
switch fluorescence ratio: 1.02 ± 0.019

TTATGGAGTT
switch fluorescence ratio: 0.987 ± 0.01

CTCACTTGGG
switch fluorescence ratio: 1.024 ± 0.0012

GGGACTTTTT
switch fluorescence ratio: 0.999 ± 0.043

ATAGTTAAAC
switch fluorescence ratio: 1.01 ± 0.012

TTTAAGTGAG
switch fluorescence ratio: 0.981 ± 0.021

CGTTAGATT
switch fluorescence ratio: 0.967 ± 0.011

CGGGTCAACT
switch fluorescence ratio: 0.963 ± 0.014

CTGGGGATTA
switch fluorescence ratio: 0.972 ± 0.031

TACTGTGTAT
switch fluorescence ratio: 1.01 ± 0.035

TTTAAATTAG
switch fluorescence ratio: 0.969 ± 0.046

TGGGGGGTGT
switch fluorescence ratio: 1.02 ± 0.069

TAACGTATGT
switch fluorescence ratio: 0.9929 ± 0.0046

ATGAGGGTAG
switch fluorescence ratio: 1.02 ± 0.034

AGGGTTATGG
switch fluorescence ratio: 0.996 ± 0.016

TGGAGTTGGT
switch fluorescence ratio: 0.987 ± 0.047

AATGGTGGGT
switch fluorescence ratio: 1.01 ± 0.036

ACTGGGGACG
switch fluorescence ratio: 1.02 ± 0.053

AGACGTGTGT
switch fluorescence ratio: 1.023 ± 0.0088

TCTTGTATAG
switch fluorescence ratio: 0.966 ± 0.032

TTTGTGACAG
switch fluorescence ratio: 1.02 ± 0.018

TAGGCGCTAG
switch fluorescence ratio: 0.999 ± 0.011

TAGCGGGGGA
switch fluorescence ratio: 1.04 ± 0.019

GATTGAATAA
switch fluorescence ratio: 0.997 ± 0.019

AGTTCGGTGC
switch fluorescence ratio: 0.9799 ± 0.0012

GGGTCCGGTC
switch fluorescence ratio: 1.0075 ± 7.9e-05

CCTTCCTGTG
switch fluorescence ratio: 3.62 ± 0.024

AGGCATAAGG
switch fluorescence ratio: 0.9897 ± 0.0077

TTGTCACGGG
switch fluorescence ratio: 1.02 ± 0.05

CCGAAATTTT
switch fluorescence ratio: 1.05 ± 0.016

CAGTCCATTA
switch fluorescence ratio: 1.011 ± 0.0093

GTATGGGTTT
switch fluorescence ratio: 0.975 ± 0.012

AAAGGGAAAA
switch fluorescence ratio: 1 ± 0.028

TGCATTCTGA
switch fluorescence ratio: 1.02 ± 0.025

AGTGTCTTTG
switch fluorescence ratio: 0.954 ± 0.011

CTTTTCAGGT
switch fluorescence ratio: 0.998 ± 0.019

GTCCGCCTTG
switch fluorescence ratio: 1.07 ± 0.011

TTGTTTAATA
switch fluorescence ratio: 1.02 ± 0.019

GTCATCAGTG
switch fluorescence ratio: 1.02 ± 0.027

CGGCCAGGAA
switch fluorescence ratio: 1.05 ± 0.024

AGGAGTGCCA
switch fluorescence ratio: 1.017 ± 0.0093

TTTTCGGGAT
switch fluorescence ratio: 1.19 ± 0.42

ATCCTTTCAG
switch fluorescence ratio: 0.995 ± 0.016

CCGACATGGT
switch fluorescence ratio: 1.27 ± 0.11

TATAGGGAAT
switch fluorescence ratio: 0.98384 ± 3.5e-05

AGGAATTGGA
switch fluorescence ratio: 1.01 ± 0.1

TTGTTTAGCC
switch fluorescence ratio: 0.989 ± 0.032

TAGGGGTTGC
switch fluorescence ratio: 1.1 ± 0.11

GACGGGGATG
switch fluorescence ratio: 1.03 ± 0.012

GGGATCTATA
switch fluorescence ratio: 0.9721 ± 0.0081

TTATACCAAG
switch fluorescence ratio: 1.03 ± 0.023

AGGTCTTGGG
switch fluorescence ratio: 0.972 ± 0.027

ATCACAATCA
switch fluorescence ratio: 1.02 ± 0.023

TGGTGGGGAG
switch fluorescence ratio: 1.01 ± 0.045
